For assay [1], the target named is T1, GLP-1 receptor (Rattus norvegicus, UniProt P32301).
T1 construct: endogenous in cells; host or cells: RINm5F cell membranes
T1 sequence (P32301 22-463): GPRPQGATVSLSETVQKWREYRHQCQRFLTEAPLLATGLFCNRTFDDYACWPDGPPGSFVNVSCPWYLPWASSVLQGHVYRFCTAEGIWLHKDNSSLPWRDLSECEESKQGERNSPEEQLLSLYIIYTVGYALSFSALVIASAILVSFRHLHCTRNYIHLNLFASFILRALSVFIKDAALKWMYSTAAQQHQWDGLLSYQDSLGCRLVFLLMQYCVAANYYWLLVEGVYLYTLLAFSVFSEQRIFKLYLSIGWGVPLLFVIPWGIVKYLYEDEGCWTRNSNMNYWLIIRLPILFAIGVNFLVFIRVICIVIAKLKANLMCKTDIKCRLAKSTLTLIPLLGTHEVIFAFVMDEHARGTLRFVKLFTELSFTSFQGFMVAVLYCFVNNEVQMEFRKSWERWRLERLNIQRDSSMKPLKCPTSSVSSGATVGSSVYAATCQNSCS
The assay can be described thus: GLP-1 receptor binding displacement assay. Particulars: text of Examples 6, 7, 12. The protocol: GLP-1 receptor binding and functional assays: GLP-1 receptor binding activity and affinity may be measured in any number of known methods. […] Reaction mixtures are filtered through glass filter pads presoaked with 0.3% PEI solution and rinsed with ice-cold phosphate buffered saline. Bound counts are determined using a scintillation counter. Binding affinities can be calculated using GraphPad Prism® software (GraphPad Software, Inc., San Diego, Calif.).

In assay [2] the target is GLP-1 receptor (UniProt P32301). The assay can be described thus: radioligand displacement, RINm5F cell membranes, [125I]GLP-1 (or exendin) tracer. For orientation: Displacement assays read how much labelled ligand stays bound in the presence of the test substance.
Assay [3] has the same target. As to the kind of experiment: cell-based or functional assay.
Assay [4] addresses T2, GLP-1 receptor (UniProt P32301 22-463, limits assumed).
T2 sequence (looked up): T1 sequence (P32301 22-463)
The assay can be described thus: cell-based or functional assay.

A further assay addresses T3, GLP-1 receptor, P32301.
T3 chain: T1 sequence (P32301 22-463)
As to the kind of experiment: GLP-1 binding assay (radioligand displacement), as the filing names it.

Bridge positions count the residues as written; N and C are the ends. Peptide text beside a SMILES is read from it. * marks the point of attachment. NH(mPEG24) = COCCOCCOCCOCCOCCOCCOCCOCCOCCOCCOCCOCCOCCOCCOCCOCCOCCOCCOCCOCCOCCOCCOCCOCCN*

In turn, `CC[C@H](C)[C@H](NC(=O)[C@@H]1CCCN1C(=O)CNC(=O)[C@H](Cc1ccccc1)NC(=O)[C@H](CC(N)=O)NC(=O)[C@H](CC(N)=O)NC(=O)[C@H](CO)NC(=O)[C@H](CO)NC(=O)[C@H](Cc1c[nH]cn1)NC(=O)[C@@H](NC(=O)[C@H](CC(C)C)NC(=O)[C@H](Cc1ccccc1)NC(=O)[C@H](CC(N)=O)NC(=O)[C@H](C)NC(=O)[C@H](CC(C)C)NC(=O)[C@H](CCCNC(=N)N)NC(=O)[C@H](CCC(=O)NCCOCCOCCOCCOCCOCCOCCOCCOCCOCCOCCOCCOCCOCCOCCOCCOCCOCCOCCOCCOCCOCCOCCOCCOC)NC(=O)[C@@H](NC(=O)[C@H](C)NC(=O)[C@@H]1CSSC[C@H](NC(=O)[C@@H](N)CCCCN)C(=O)N[C@@H](CC(N)=O)C(=O)N[C@@H]([C@@H](C)O)C(=O)N[C@@H](C)C(=O)N[C@@H]([C@@H](C)O)C(=O)N1)[C@@H](C)O)C(C)C)C(=O)N[C@@H](CC(C)C)C(=O)N1CCC[C@H]1C(=O)N1CCC[C@H]1C(=O)N[C@H](C(=O)N[C@@H](CC(N)=O)C(=O)N[C@H](C(=O)NCC(=O)N[C@@H](CO)C(=O)N[C@@H](CC(N)=O)C(=O)N[C@H](C(=O)N[C@@H](Cc1ccc(O)cc1)C(N)=O)[C@@H](C)O)C(C)C)[C@@H](C)O` [Example 12] (H-KCNTATCATE(NH(mPEG24))RLANFLVHSSNNFGPILPPTNVGSNTY-NH2; disulfide 2-7; N-terminus and C-terminus assumed) yielded an IC50 at GLP-1 receptor [1] of 80 nM.

The molecule Exendin-4 (peptide) registered an IC50 in the assay with GLP-1 receptor [2] of 0.333 nM. In the assay with GLP-1 receptor [3], this molecule returned a GLP-1 Function ED50 of 3 pM.

B1: [des-^1H, ^2G(imidazoacetyl), ^13N, ^14L]-Exendin-4-^40Q biotin cadaverine amide adduct attached at ^40Q (MW 4564.46) (peptide)
peptide: GEGTFTSDLSKNLEEEAVRLFIEWLKNGGPSSGAPPPSQ
modifications: imidazoacetyl on Gly 2 in place of His 1; biotin cadaverine amide on the side chain of Gln 40
On to B1, for which the “EC50 in the GLP-1 functional assay” value with GLP-1 receptor [4] amounted to 4 pM.

Consider KCNTATCATQRLANFLVHSSNNFGPILPPTNVGSNTY (modifications not checked) [Pramlintide pegylated with m-dPEG24 amine at the glutamine at position 10], for which the IC50 with GLP-1 receptor, P32301 was found to be 80 nM.

For orientation: IC50 means the concentration needed to halve the response being measured. A higher IC50 goes with a need for much substance.
